Test: yeast display, Sf9 membrane polyspecificity reagent, FACS + sequencing; frameworks hold sequencing errors
Procedure, shortened: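 Nanobodies came from a synthetic yeast display library in Saccharomyces cerevisiae BJ5465, induced with galactose for 36–48 hours and stained for 1 hour at 4 °C with 10% biotinylated, detergent-solubilized Sf9 membrane reagent. Cells were enriched on streptavidin microbeads and then FACS-sorted, with low and high (top ~1%) gates set on anti-HA fluorescence for expression and streptavidin fluorescence for reagent binding. Each polyreactivity label reflects the gate a clone came from. Genes were amplified by colony PCR, sequenced by MiSeq 2 × 250 and filtered by CDR length.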

| Sequence | polyreactivity (PSR sort gate) |
| --- | --- |
| QVQLVESGGGLVQAGGSLRLSCAASGFTFTYYVMGWYRQAPGKERELVAAISVSGGSTYYADSVKGRFTITRDNAKNTVYLQMNSLKPEDTAVYYCAARSPFYSYTPGYEYWGQGTQVTVSS | high polyreactivity |
| QVQLVESGGGLVQAGGSLRLSCAASGFTFVAYAMGWYRQAPGKERELVAAISKSGGNTYYADSVKGRFTISRDNAKNTVYLQMNSLKPEDTAVYYCAAPRRYAWGQVNYWGQGTQVTVSS | high polyreactivity |
| QVQLVESGGGLVQAGGSLRLSCAASGFTFVAYAMGWYRQAPGKERELVAAISRRGGTTYYADSVKGRFTISRDNAKNTVYLQMNSLKPEDTAVYYCNARGFPGKFGYWGQGTQVTVSS | high polyreactivity |
| QVQLVESGGGLVQAGGSLRLSCAASGFTFVDYAMGWYRQAPGKERELVAAISSSGDSTYYADSVKGRFTISRDNAKITVYLQMNSLKPEDTAVYYCAAEYDREEYSGYDYWGQGTQVTVSS | low polyreactivity |
| QVQLVESGGGLVQAGGSLRLSCAASGFTFVDYAMGWYRQAPGKERELVAAITVSGDSTYYADSVKGRFTISRDNAKNTVYLQMNSLKPEDTAVYYCAADPGYYDGGYWGQGTQVTVSS | low polyreactivity |
| QVQLVESGGGLVQAGGSLRLSCAASGFTFVFNARAWYRQAPGKERELVATITNGGSTYYADSVKGRFTISRDNAKNTVYLQMNSLKPEDTAVYYCAAVRKQCSGFDYWGQGTQVTVSS | high polyreactivity |
| QVQLVESGGGLVQAGGSLRLSCAASGFTFVFYAMGWYRQAPGKERELVAAISSRGGSTYYADSVKGRFTISRDNAKNTVDLQMNSLKPEDTAVYYCNVVSTYWTTYEEYYWGQGTQVTVSS | high polyreactivity |
| QVQLVESGGGLVQAGGSLRLSCAASGFTFVGNAMGWYRQAPGKARELVAAIRWTDGSTYYADSVKGRFTISRDNAKNTVYLHMNSLKPEDTAVYYCAKDYRDYARAGDYNVKQADDYWGQGTQVTVSS | low polyreactivity |
| QVQLVESGGGLVQAGGSLRLSCAASGFTFVGNAMGWYRQAPGKERELVAAITSGGSTYYADSVKGRFTISRDNAKNTVYLQMNSLKPEDTAVYYCATGGRGGRRYEYWGQGTQVTVSS | low polyreactivity |
| QVQLVESGGGLVQAGGSLRLSCAASGFTFVGYAMGWYRQEPGKERELVAAISTRGGSTYYADSVKGRFTISRDNAKNTDYLQMNSLKPEDTAVYYCNARGAKRGLLSYYWGQGTQVTVSS | high polyreactivity |
| QVQLVESGGGLVQAGGSLRLSCAASGFTFVHNAMGWYRQAHGKERELVAAISSSGGRTYYADSVKGRFTISRDNAKNTVYLQMNSLKPEDTAVYYCATVNRYGPSYGYWGQGTQVTVSS | high polyreactivity |
| QVQLVESGGGLVQAGGSLRLSCAASGFTFVHYAMGWYRQAPGKETELVAAISSGGSTYYADSVKGRFTISRDNAKNTVYLQLNSLKAEDTAVYYCAALKYSRGVRYGYWGQVTQVTVSS | high polyreactivity |
| QVQLVESGGGLVQAGGSLRLSCAASGFTFVINDMGWYRQAPGKERELVADITSGGDTNYADSVKGRFTISRDNAKNTVYFQMNSLKPEDTAVYYCAADIYPDWIYLLFGYWGQGTQVTVSS | low polyreactivity |
| QVQLVESGGGLVQAGGSLRLSCAASGFTFVNYAMGWYRQAPGKERELVAAIRRSGSRTYYADSVKGRCTISRDIAKYTVYLQMNSLKPDDTPVYYCAAVWYRLYGYWGQGTQVTVSS | low polyreactivity |
| QVQLVESGGGLVQAGGSLRLSCAASGFTFVNYVMGWYRQAHGKERELVAAISRSGGSTYYADSVKGRFTISRDNAKNTVYLQMNSLKPEDTAVYYCAARWFYRAGFNYWGQGTQVTVSS | high polyreactivity |
| QVQLVESGGGLVQAGGSLRLSCAASGFTFVQYAMGWYRQAPGKERELVATISKSGGITYYADSVKGRFTISRDNAKNTVYLQMNSLKPEDTAVYYCAAAWYYSSRGFHATWGHDYWGQGTQVTVSS | low polyreactivity |
| QVQLVESGGGLVQAGGSLRLSCAASGFTFVRNAMGWYRQAPGKERELVAAISGSGGRTYYADSVKGRFTISRDNAKNTVYLQMNSLKPEDTAVYDCNTASAYEYEYWGQGTQVTVSS | high polyreactivity |
| QVQLVESGGGLVQAGGSLRLSCAASGFTFVRNTLGWYRQAPGKERELVATITFSGGSTYYADSVKGRFTISRDNAKNTVYLQMNTLKPEDTAVYYCAAEDWDDGYDYWGQGTQVTVSS | high polyreactivity |
| QVQLVESGGGLVQAGGSLRLSCAASGFTFVRNTMGWYRQAPGKERELVAAISRSGGSTYYADSVKGRFTISRDNAKNTVYLQMNSLKPEDTAVYYCNAYRYVHYDWGQGTQVTVSS | high polyreactivity |
| QVQLVESGGGLVQAGGSLRLSCAASGFTFVRNVMGWYRQAPGKERELVAAINTGGTTDYADSVKGRFTISRDNAKNTVYLQMNSLKPEDTAVYYCNADYDSQYHYLLRYDYWGQGTQVTVSS | low polyreactivity |
| QVQLVESGGGLVQAGGSLRLSCAASGFTFVRYAIGWYRQAPGKERELVSVISRSGGSTNYADSVKGRFTISRDNAKNTVYLQMNSLKPEDTAVYYCAASLQYRRVVKGGDYWGQGTQVTVSS | high polyreactivity |
| QVQLVESGGGLVQAGGSLRLSCAASGFTFVRYAMGWYRQAPGKERELVAAISSGGSTNYADSVKGRFTISRDNAKNTVYLQMNSLKPEDTAVYYCNAVSRKVYPGPMDYWGQGTQVTVSS | high polyreactivity |

| Sequence | polyreactivity (PSR sort gate) |
| --- | --- |
| QVQLVESGGGLVQAGGSLRLSCAASGFTFVRYTMGWYRQAPGKERELVAAINRSGGNTYYADSVKGRFTISRDNAKKTVYLQMNSLKPEDTAVYYCAAGYYVQVSLKDYYWGQGTQVTVSS | high polyreactivity |
| QVQLVESGGGLVQAGGSLRLSCAASGFTFVSNAMGWYRQAPGKERELVAAISGSGGSTYYADSVKGRFTISRDNAKNTVYLQMNSLKPEDTAVYYCAKGSRSYVRKMDYWGQGTQVTVSS | low polyreactivity |
| QVQLVESGGGLVQAGGSLRLSCAASGFTFVSNDMGWYRQAPGKERELVAAIRYRGGDTYYADSVKGRFTISRDNAKNTVYLQMNSLKPEDTAVYYCAVDVATYTAGWYYHGYDYWGQGTQVTVSS | low polyreactivity |
| QVQLVESGGGLVQAGGSLRLSCAASGFTFVSYAMGWYRQAPGKERELVAAITSNGGSTYYADSVKGRFTISRDNAKNTVYLQMNSLKPEDTAVYYCAAAGFWHGYFGYGYWGQGTQVTVSS | low polyreactivity |
| QVQLVESGGGLVQAGGSLRLSCAASGFTFVSYAMGWYRQAPGKERELVASITWTGGSTYYADSVKGRFTISRDYAKNTVYLQMNSLKPEDTAVYYCAAQQFYSGILGRYYWGQGTQVTVSS | low polyreactivity |
| QVQLVESGGGLVQAGGSLRLSCAASGFTFVVYAMGWYSQAPGKERELVARITWSGGSTYYADSVKGRFTISRDNAKNTVYLQMNSLKPEDTAVYDCNTRRYPYDGIEHDYWGQGTQVTVSS | low polyreactivity |
| QVQLVESGGGLVQAGGSLRLSCAASGFTFVYNAMGWYRQAPGKERELVAAITFSGGSTYYADSVNGRFTISRDNAKNTVYLQMNSLKPEDTAVYYCATDYPGVFVLRRSHPYDYWGQGTQVTVSS | low polyreactivity |
| QVQLVESGGGLVQAGGSLRLSCAASGFTFVYNAMGWYRQAPGKERELVASITQSGDITYYADSVKGRFTISRDNAKNTVYLQMNSLKPEDTAVYYCNKFQGTGDRFDSWGQGTQVTVSS | low polyreactivity |
| QVQLVESGGGLVQAGGSLRLSCAASGFTFVYYGMGWYRQAPGKERELVADISSGGNTYYADSVKGRFTISRDNAKNTVYLQMNSLKPEETAVYYCNKDARDEEGSSRTYDYWGQGTQVTVSS | low polyreactivity |
| QVQLVESGGGLVQAGGSLRLSCAASGFTFVYYVMGWYRQAPGKERELVAAINAGGGSTYYADSVKGRFTISRDNAKNTVYLQMISLKPEDTSVYYCNARVRVRLGRNWSSYYYWGQGTQVTVSS | high polyreactivity |
| QVQLVESGGGLVQAGGSLRLSCAASGFTFVYYVMGWYRQAPGKERELVAAINAGGGSTYYADSVKGRFTISRDNAKNTVYLQMNSLKPEDTAVYYCNARVRVRLGRNWSSYDYWGQGSQVTVSS | high polyreactivity |
| QVQLVESGGGLVQAGGSLRLSCAASGFTFWDYAMGWYRQAPGKERELVAAISDNDGSTDYADSVKGRFTISRDNAKNTVYLQMNSLKPEDTAVYYCNAEIEMPSKEGDYWGQGTQVTVSS | low polyreactivity |
| QVQLVESGGGLVQAGGSLRLSCAASGFTFWDYAMGWYRQAPGKERELVAAISWSGGSTYYADSVKGRFTISRDNAKNTVYLQMNSLKPEDTAVYYCNAVHYSHHGYDYWGQGTQVTVSS | low polyreactivity |
| QVQLVESGGGLVQAGGSLRLSCAASGFTFWGNAMGWSRQAPVKERELVAAISRSGGRTYYADSVKGRFTISRDNAKNTVYLQMNSLKPEDTAVYYCDAGSSHHFDYEGGYWGQGTQVTVSS | low polyreactivity |
| QVQLVESGGGLVQAGGSLRLSCAASGFTFWKYTMGWYRQAPGKERELVATISSSSGSTTYADSVKGRFTISRDNAKNTVYLQMYSLKPEDTAVYYCNVDDPFYSGVVEFDYWGQGTQVTVSS | low polyreactivity |
| QVQLVESGGGLVQAGGSLRLSCAASGFTFWLYAMGWYRQAPGKERELVATISWSGGSTYYADSVKGRFTISRDNAKNTVYLQMNSLKPEDTAVYYCAARLNYGNKYDYWGQGTQVTVSS | high polyreactivity |
| QVQLVESGGGLVQAGGSLRLSCAASGFTFWPNAMGWYRQAPGKERELVAAINWSGGSTYYADSVKGRFTISRDNAKNSVYLQMNSLKPEDTAVYYCNADPYLLEHDYWGQGTQVSVSS | low polyreactivity |
| QVQLVESGGGLVQAGGSLRLSCAASGFTFWPNAMGWYRQAPGKERELVAAINWSGGSTYYADSVKGRFTISRDNAKNTVFLQLNSLKPEDTAVYYCAAVSYDWYVGYEFWGQGTQVTVSS | low polyreactivity |
| QVQLVESGGGLVQAGGSLRLSCAASGFTFWQYAMGWYRQAPGKERELVAAITRDVGSTYYADSVKGRFTISRDNAKNTVYLQMNSLKPEDTAVYYCAKLFGGTYYEYDYWGQGTHVTVSS | low polyreactivity |
| QVQLVESGGGLVQAGGSLRLSCAASGFTFWRNAMGLYRQAPGKERELDAAISWRGGSTYYADCVKGRFTISRDNAKNTVYFQMNSLKPEDTAVYYCNVVYFRYYSGEFDYWGQGTQVTVSS | high polyreactivity |
| QVQLVESGGGLVQAGGSLRLSCAASGFTFWRNTMGSYRQARGKEREFVAAIDWSGGSTTYADSVKGRFTISRDNAKNTVYLQMNSLKKEDTAVYYCAAAERRRHYWWGQESDYWGQGTQVTVSS | low polyreactivity |

From the nanobody polyreactivity screen of Harvey et al. (2022)
